In patent publication US20260242478A1 (published 2026):
Where no end group is shown, it is not given here.

How the values were obtained:
[1] = target: T1, Anti-CD28 Fab (SEQ ID NOs: 696, 697); test: phage binding ELISA on captured anti-CD28 Fab, wells pre-incubated with CD28 antigen as competitor; anti-M13 HRP detection
T1 construct: Biotinylated and captured on neutravidin coated plates in the phage ELISA

[2] = target: T1, Anti-CD28 Fab (SEQ ID NOs: 696, 697); test: phage binding ELISA; clonal phage supernatant on biotinylated anti-CD28 Fab captured on neutravidin plate; anti-M13 HRP detection
[3] = target: T2, Anti-CD28 Fab (SEQ ID NOs: 696, 697); test: phage binding ELISA; biotinylated Fab on neutravidin plate, clonal phage supernatant, anti-M13 HRP detection;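 further: phage from clones picked after panning, added to wells pre-incubated with blocking buffer with or without CD28 antigen, then briefly incubated and washed before detection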
T2 construct: Biotinylated and captured on neutravidin coated plates in the phage ELISA

[4] = target: T2, Anti-CD28 Fab (SEQ ID NOs: 696, 697); test: phage binding ELISA; Fab on plate pre-incubated with CD28 antigen as competitor, anti-M13 HRP detection;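 further: crude clonal phage supernatants screened by ELISA, with comparison wells pre-incubated in blocking buffer only, lacking CD28 antigen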
[5] = target: Anti-CD28 Fab (SEQ ID NOs: 696, 697); test: phage ELISA on captured anti-CD28 Fab; competitor CD28 antigen pre-incubated in the wells;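 further: clonal phage supernatants added to wells preloaded with CD28 antigen in blocking buffer, control wells buffer only, bound phage read via HRP-linked anti-M13 antibody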
[6] = target: Anti-CD28 Fab (SEQ ID NOs: 696, 697); test: phage ELISA; clonal phage on biotinylated anti-CD28 Fab captured on neutravidin, anti-M13 HRP detection

YCAGHVPEYMAKCL [Phage-829 (Peptide-87 library sequence, SEQ ID NO: 1145)] was tested, and the “Phage binding ELISA, Anti-CD28 Fab signal in the presence of CD28” value (“Phage binding ELISA … of CD28” below) [1] was 0.07 and the “Phage binding ELISA, Anti-CD28 Fab signal” value [2] was 1.78.

B1: Phage-812 (peptide)
peptide: YCAGHSSEYIWKCL
modifications: cysteine pairing not given here; also: displayed on phage by fusion to pIII, pIII and linker sequence not given here
notes: Clonal phage of the Peptide-87 library; not shown: fused to the pIII filament protein of the bacteriophage
For B1, the “Anti-CD28 Fab (SEQ ID NOs: 696, 697) signal” value [3] was 1.82 and the “Anti-CD28 Fab signal in the presence of CD28” value [4] was 0.06.

In the case of YCDGHLAEYMVKCL [Phage-825 (Peptide-87 library peptide, SEQ ID NO: 1141)], the “Phage binding ELISA … of CD28” value [5] is reported as 0.08 and the “Phage binding ELISA, Anti-CD28 Fab signal” value [6] is reported as 1.79.

For YCAGHAEQYMAKCL [Phage-820 (Peptide-87 library peptide, SEQ ID NO: 1136)], the “Phage binding ELISA … of CD28” value [5] was 0.08 and the “Phage binding ELISA, Anti-CD28 Fab signal” value [6] was 1.8.

B2: Phage-809 (peptide)
peptide: YCDGHAREYMTKCL
modifications: cysteine pairing not given here; also: displayed on phage by fusion to pIII, pIII and linker sequence not given here
notes: as for B1
B2 was tested, and the “Anti-CD28 Fab (SEQ ID NOs: 696, 697) signal” value [3] was 1.82 and the “Anti-CD28 Fab signal in the presence of CD28” value [4] was 0.06.

B3: Phage-813 (peptide)
peptide: YCEGHSAEFMTKCL
modifications: cysteine pairing not given here; also: displayed on phage by fusion to pIII, pIII and linker sequence not given here
notes: as for B1
B3 was tested, and the “Anti-CD28 Fab (SEQ ID NOs: 696, 697) signal” value [3] was 1.81 and the “Anti-CD28 Fab signal in the presence of CD28” value [4] was 0.06.

In the case of YCDGHLGVYMAKCL [Phage-822 (Peptide-87 library peptide, SEQ ID NO: 1138)], the “Phage binding ELISA … of CD28” value [5] is reported as 0.07 and the “Phage binding ELISA, Anti-CD28 Fab signal” value [6] is reported as 1.79.

B4: Phage-811 (peptide)
peptide: YCDGHSSMYMAKCL
modifications: cysteine pairing not given here; also: displayed on phage by fusion to pIII, pIII and linker sequence not given here
notes: as for B1
In the case of B4, the “Anti-CD28 Fab (SEQ ID NOs: 696, 697) signal” value [3] is reported as 1.82 and the “Anti-CD28 Fab signal in the presence of CD28” value [4] is reported as 0.06.

With YCDGHSSEYIAKCL [Phage-833 (Peptide-87 library sequence, SEQ ID NO: 1149)] the “Phage binding ELISA … of CD28” value [1] was 0.07 and the “Phage binding ELISA, Anti-CD28 Fab signal” value [2] was 1.77.

For YCDGHTSEYITKCL [Phage-823 (Peptide-87 library peptide, SEQ ID NO: 1139)], the “Phage binding ELISA … of CD28” value [5] was 0.07 and the “Phage binding ELISA, Anti-CD28 Fab signal” value [6] was 1.79.

In the case of YCDGHKAEYMEKCL [Phage-816 (Peptide-87 library peptide, SEQ ID NO: 1132)], the “Phage binding ELISA … of CD28” value [5] is reported as 0.09 and the “Phage binding ELISA, Anti-CD28 Fab signal” value [6] is reported as 1.81.

In the case of YCDGHAPMYMAKCL [Phage-826 (Peptide-87 library peptide, SEQ ID NO: 1142)], the “Phage binding ELISA … of CD28” value [5] is reported as 0.08 and the “Phage binding ELISA, Anti-CD28 Fab signal” value [6] is reported as 1.79.

For YCDGHTREYIDKCL [Phage-818 (Peptide-87 library peptide, SEQ ID NO: 1134)], the “Phage binding ELISA … of CD28” value [5] was 0.08 and the “Phage binding ELISA, Anti-CD28 Fab signal” value [6] was 1.8.

In the case of YCQGHSAEYMMKCL [Phage-814 (Peptide-87 library peptide, SEQ ID NO: 1130)], the “Phage binding ELISA … of CD28” value [5] is reported as 0.07 and the “Phage binding ELISA, Anti-CD28 Fab signal” value [6] is reported as 1.81.

For YCEGHLPAYMQKCL [Phage-827 (Peptide-87 library sequence, SEQ ID NO: 1143)], the “Phage binding ELISA … of CD28” value [1] was 0.07 and the “Phage binding ELISA, Anti-CD28 Fab signal” value [2] was 1.78.

For YCDGLASEYMSKCL [Phage-832 (Peptide-87 library sequence, SEQ ID NO: 1148)], the “Phage binding ELISA … of CD28” value [1] was 0.05 and the “Phage binding ELISA, Anti-CD28 Fab signal” value [2] was 1.77.

B5: Phage-804 (peptide)
peptide: YCEGHSAEYIFKCL
modifications: cysteine pairing not given here; also: displayed on phage by fusion to pIII, pIII and linker sequence not given here
notes: as for B1
For B5, the “Anti-CD28 Fab (SEQ ID NOs: 696, 697) signal” value [3] was 1.83 and the “Anti-CD28 Fab signal in the presence of CD28” value [4] was 0.05.

B6: Phage-810 (peptide)
peptide: YCDGHTEEYMDKCL
modifications: cysteine pairing not given here; also: displayed on phage by fusion to pIII, pIII and linker sequence not given here
notes: as for B1
With B6 the “Anti-CD28 Fab (SEQ ID NOs: 696, 697) signal” value [3] was 1.82 and the “Anti-CD28 Fab signal in the presence of CD28” value [4] was 0.09.

For YCAGHLPQYMNKCL [Phage-815 (Peptide-87 library peptide, SEQ ID NO: 1131)], the “Phage binding ELISA … of CD28” value [5] was 0.06 and the “Phage binding ELISA, Anti-CD28 Fab signal” value [6] was 1.81.

With YCEGHSPQYVQKCL [Phage-834 (Peptide-87 library sequence, SEQ ID NO: 1150)] the “Phage binding ELISA … of CD28” value [1] was 0.06 and the “Phage binding ELISA, Anti-CD28 Fab signal” value [2] was 1.77.

In the case of YCDGHLSEYMFKCL [Phage-821 (Peptide-87 library peptide, SEQ ID NO: 1137)], the “Phage binding ELISA … of CD28” value [5] is reported as 0.1 and the “Phage binding ELISA, Anti-CD28 Fab signal” value [6] is reported as 1.79.

With YCEGHHPQYMAKCL [Phage-828 (Peptide-87 library sequence, SEQ ID NO: 1144)] the “Phage binding ELISA … of CD28” value [1] was 0.09 and the “Phage binding ELISA, Anti-CD28 Fab signal” value [2] was 1.78.

In the case of YCEGHLDEYMWKCL [Phage-831 (Peptide-87 library sequence, SEQ ID NO: 1147)], the “Phage binding ELISA … of CD28” value [1] is reported as 0.06 and the “Phage binding ELISA, Anti-CD28 Fab signal” value [2] is reported as 1.77.

YCAGHLPEYMLKCL [Phage-837 (Peptide-87 library sequence, SEQ ID NO: 1153)] was tested, and the “Phage binding ELISA … of CD28” value [1] was 0.09 and the “Phage binding ELISA, Anti-CD28 Fab signal” value [2] was 1.76.

YCAGHLPMYMAKCL [Phage-817 (Peptide-87 library peptide, SEQ ID NO: 1133)] was tested, and the “Phage binding ELISA … of CD28” value [5] was 0.08 and the “Phage binding ELISA, Anti-CD28 Fab signal” value [6] was 1.8.

B7: Phage-806 (peptide)
peptide: YCDGHSAEYMEKCI
modifications: cysteine pairing not given here; also: displayed on phage by fusion to pIII, pIII and linker sequence not given here
notes: as for B1
B7 was tested, and the “Anti-CD28 Fab (SEQ ID NOs: 696, 697) signal” value [3] was 1.83 and the “Anti-CD28 Fab signal in the presence of CD28” value [4] was 0.07.

In the case of YCVGHAPEFMAKCL [Phage-819 (Peptide-87 library peptide, SEQ ID NO: 1135)], the “Phage binding ELISA … of CD28” value [5] is reported as 0.1 and the “Phage binding ELISA, Anti-CD28 Fab signal” value [6] is reported as 1.8.

B8: Phage-808 (peptide)
peptide: YCEGHAPQYLNKCL
modifications: cysteine pairing not given here; also: displayed on phage by fusion to pIII, pIII and linker sequence not given here
notes: as for B1
With B8 the “Anti-CD28 Fab (SEQ ID NOs: 696, 697) signal” value [3] was 1.82 and the “Anti-CD28 Fab signal in the presence of CD28” value [4] was 0.08.

YCDGHSAEYITKCL [Phage-830 (Peptide-87 library sequence, SEQ ID NO: 1146)] was tested, and the “Phage binding ELISA … of CD28” value [1] was 0.06 and the “Phage binding ELISA, Anti-CD28 Fab signal” value [2] was 1.77.

For YCDGHLDEYMEKCL [Phage-836 (Peptide-87 library sequence, SEQ ID NO: 1152)], the “Phage binding ELISA … of CD28” value [1] was 0.08 and the “Phage binding ELISA, Anti-CD28 Fab signal” value [2] was 1.76.

B9: Phage-805 (peptide)
peptide: YCEGHSPMYMQKCM
modifications: cysteine pairing not given here; also: displayed on phage by fusion to pIII, pIII and linker sequence not given here
notes: as for B1
In the case of B9, the “Anti-CD28 Fab (SEQ ID NOs: 696, 697) signal” value [3] is reported as 1.83 and the “Anti-CD28 Fab signal in the presence of CD28” value [4] is reported as 0.06.

B10: Phage-807 (peptide)
peptide: YCDGHLPLYMHKCL
modifications: cysteine pairing not given here; also: displayed on phage by fusion to pIII, pIII and linker sequence not given here
notes: as for B1
In the case of B10, the “Anti-CD28 Fab (SEQ ID NOs: 696, 697) signal” value [3] is reported as 1.82 and the “Anti-CD28 Fab signal in the presence of CD28” value [4] is reported as 0.07.

In the case of YCDGHSPEYIAKCL [Phage-824 (Peptide-87 library peptide, SEQ ID NO: 1140)], the “Phage binding ELISA … of CD28” value [5] is reported as 0.23 and the “Phage binding ELISA, Anti-CD28 Fab signal” value [6] is reported as 1.79.

For YCEGHLPIYMSKCL [Phage-838 (Peptide-87 library sequence, SEQ ID NO: 1154)], the “Phage binding ELISA … of CD28” value [1] was 0.09 and the “Phage binding ELISA, Anti-CD28 Fab signal” value [2] was 1.76.

In the case of YCVGHLQEYMEKCL [Phage-839 (Peptide-87 library sequence, SEQ ID NO: 1155)], the “Phage binding ELISA … of CD28” value [1] is reported as 0.06 and the “Phage binding ELISA, Anti-CD28 Fab signal” value [2] is reported as 1.76.

For YCEGHSPEYMRKCL [Phage-835 (Peptide-87 library sequence, SEQ ID NO: 1151)], the “Phage binding ELISA … of CD28” value [1] was 0.08 and the “Phage binding ELISA, Anti-CD28 Fab signal” value [2] was 1.77.
